Among the data in the supplement of paper PMC12042874 are amyloid nucleation score values, retold here.

A short description of the data set: amyloid nucleation score (Sup35N fusion, yeast selection) (log enrichment); library NNK1; higher = more nucleation; inactive = no reads after selection. A digest of the protocol:
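DiMSum was used to calculate nucleation scores as log enrichment of output over input reads, centred on the mode score of non-aggregating sequences. Sequences with fewer than 100 input reads were not scored. Input and output came from Illumina sequencing of plasmid inserts in psi-negative yeast expressing peptides of 20 random codons fused to Sup35N, induced 24 hours with 100 μM copper sulfate and then grown 7 days at 30°C on medium lacking adenine and uracil.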

± gives the uncertainty stated by the source.

Turning to NVILKDLQVYPEKAVSINRY, the amyloid nucleation score was 1.05 ± 0.32.

GRFFVHEVGMFQTSGQ gave an amyloid nucleation score of -0.187 ± 1.3.

For LFLECNDTLHRATTGVNLFK, the amyloid nucleation score is 0.206 ± 1.6.

Regarding QGSIHY, the amyloid nucleation score result was “inactive”.

As for KRMDKPWTPGYTAMHWVDNM, the amyloid nucleation score came out at 0.612 ± 0.52.

With CGAYRMWQYKASRGTHWPYT, the amyloid nucleation score is -0.182 ± 0.6.

In turn, VVMVLSKGPDIRSNMRCSSV came in with an amyloid nucleation score of -1.9 ± 1.4.

In the case of RQVPGIKCKSFTLYFADITL, the amyloid nucleation score was 3.85 ± 0.1.

LDRSTSSLIMSSCLMYRESS yielded an amyloid nucleation score of 1.33 ± 0.29.

Turning to RRCCNVERGSAKVALTV, the amyloid nucleation score was -0.153 ± 1.3.

On to CCDIEITLSHGVIGICSRKT, for which the amyloid nucleation score amounted to 0.844 ± 0.26.

For CMVSIQVVFKH, the amyloid nucleation score came to 4.44 ± 0.1.

In turn, VYNLFVEVVPILKNRLWFNY gave an amyloid nucleation score of 4.44 ± 0.094.

For the substance CSVRAVGILRWAFFGEHPLN, the amyloid nucleation score was -0.422 ± 0.41.

For the substance SVVFGSSYRNAVGCWTWSQG, the amyloid nucleation score worked out at 0.6 ± 0.4.

As for TLISSGNVHYMWKVTFLNNR, the amyloid nucleation score is 4.8 ± 0.063.

GFGPTIYSFRSSGQGNGLMP displayed an amyloid nucleation score of -0.3 ± 0.27.

As for NWELRRVTRKWRSGDTSLSD, the amyloid nucleation score is -2.04 ± 2.4.

In turn, VMSGRCFTRCAFGLQRVPSV showed an amyloid nucleation score of 0.033 ± 0.63.

Substance GRMAGMFWNCGGCMEMDSVC showed an amyloid nucleation score of 1.14 ± 0.68.

For the substance SCACRYSDLVWVINSLRTVA, the amyloid nucleation score came to 0.46 ± 0.83.

For the substance VRSNGYHVMFNTINRVWDTV, the amyloid nucleation score is 0.672 ± 0.44.

Regarding MIRGLPQMMNWVP, the amyloid nucleation score is 0.758 ± 0.38.

As to GSCSYSYCTNFVRTMYGAYG, the amyloid nucleation score was 0.379 ± 0.71.

As for VETSGVILVESWCFMLGIDV, the amyloid nucleation score is 0.724 ± 0.75.

As for NSFWTLVFSGHPACWLTVFI, the amyloid nucleation score was -0.75 ± 0.59.

On to VRHLRR, for which the amyloid nucleation score is -0.496 ± 0.55.

For the substance SDNYVKAYVRVRRVMTKGGS, the amyloid nucleation score was -0.579 ± 0.58.

With YSCGGSDSWGTTNSNLGFRH, the amyloid nucleation score is -0.751 ± 0.66.

In the case of FRLTLGIVVLLVGK, the amyloid nucleation score entry was “inactive”.

Substance HCSSVQFPRTGVIEVALQKD yielded an amyloid nucleation score of -0.17 ± 0.57.

Regarding LLGIEFTSDLLPIPSISPNE, the amyloid nucleation score was 0.239 ± 0.63.

HRTDRCVVMLHWPWIF returned an amyloid nucleation score of -0.025 ± 0.56.

As for TLVFYRVQGFGIPKSQLTGE, the amyloid nucleation score is -0.675 ± 1.1.

As for AIPGGVTGTGWSSM, the amyloid nucleation score was -0.221 ± 0.51.

For LPVHGMFWSVR, the amyloid nucleation score is -0.157 ± 0.78.

The substance ANFFICFLHLVCTKIQSSLL had an amyloid nucleation score of 1.77 ± 0.52.

KRCFVLWLHRLWVGVNVFAD returned an amyloid nucleation score of 0.237 ± 0.25.

LYLYM returned an amyloid nucleation score of 0.959 ± 0.34.

For IMVTDKLSTCAETYIDISW, the amyloid nucleation score was -0.164 ± 0.75.

The substance SKICLMSIYHLQLDPFIGMP showed an amyloid nucleation score of 3.03 ± 0.17.

The substance FGTFCMGRPYRYYGCNGGFR gave an amyloid nucleation score of 0.674 ± 0.35.

NVVWAYSMAFMTSAFSVNYP: the amyloid nucleation score entry was “inactive”.

As for AGWYASW, the amyloid nucleation score came out at 0.142 ± 0.74.

Substance NPLMTTLATSDMWRNQFISG gave an amyloid nucleation score of 1.38 ± 0.41.

For the substance SRKCGDVCSKDGRPVCPGTE, the amyloid nucleation score amounted to 1.67 ± 0.15.

In the case of VHGGAWLTGGSRTGAQFIAV, the amyloid nucleation score is -0.402 ± 0.59.

On to NGFSDRKLDFHTRHMGH, for which the amyloid nucleation score is -0.147 ± 0.36.

Take MLLSWMNAMVFTRRVHLAEP: the amyloid nucleation score is -0.469 ± 1.2.

Take SNTICQVGASREEPSCGTQW: the amyloid nucleation score was 1.14 ± 0.97.

As to DVGCLCNNMHMILILLNYRV, the amyloid nucleation score amounted to 0.446 ± 0.44.

In turn, WCYFVRDGVGVGEVTCPRQR displayed an amyloid nucleation score of 0.273 ± 0.54.

The substance LEASSIISSRTPG displayed an amyloid nucleation score of -0.93 ± 2.4.

Regarding LPWGRTAFENFFVTMFFSKC, the amyloid nucleation score is -0.994 ± 1.5.

QLLPISGKVWAVISSGLG had an amyloid nucleation score of -0.029 ± 0.32.

In the case of PSRWRYYGSYGDLILICSGS, the amyloid nucleation score is -0.907 ± 0.79.

Consider FLQRIKNHAVSAGWIYSLSK, for which the amyloid nucleation score worked out at 0.106 ± 0.43.

For MPKRSKHFVNWVVNA, the amyloid nucleation score is -0.265 ± 0.29.

In turn, DLMGSWYDLRYMKGLKGK came in with an amyloid nucleation score of -0.265 ± 0.13.

Substance TWMLVEVVNCCLYTHVFYR returned an amyloid nucleation score of 4.27 ± 0.061.

In turn, WTTMFAFAF came in with an amyloid nucleation score of 1.42 ± 0.44.

The substance KCYTMHWPGS yielded an amyloid nucleation score of -1.07 ± 1.7.

TYANGGALALAIVAVKC returned an amyloid nucleation score of -0.398 ± 0.64.

In the case of ERWIVVPDESTTRTTHRHIN, the amyloid nucleation score was 0.147 ± 1.6.

FLEKSFLCSWSLVRTEGEWA had an amyloid nucleation score of -0.333 ± 0.57.

Take FTCFAK: the amyloid nucleation score amounted to 1.14 ± 0.52.

The substance GGALSCVRDF yielded an amyloid nucleation score of 1.39 ± 0.78.

Regarding RSVPLFDHPWNRVTLRFSIL, the amyloid nucleation score was 0.714 ± 0.47.

For the substance TEQGMWHSLAGGR, the amyloid nucleation score result was “inactive”.

With DNVFEALAL, the amyloid nucleation score entry is “inactive”.

Substance VNRYEVPLLGRRHDCEFSRT showed an amyloid nucleation score of -0.806 ± 1.1.

GGDGVKVVIGLHGWFASGYL had an amyloid nucleation score of 1.24 ± 0.3.

Substance TARRKSYDIFMLIMWFVAYY had an amyloid nucleation score of 2.53 ± 0.12.

As to LVLGSSLWAGCCDQPHGWQV, the amyloid nucleation score is -0.211 ± 0.54.

Substance PDWCLMVLLCGLVCIYVDLN came in with an amyloid nucleation score of 0.22 ± 1.1.

For the substance LSAWPTIEEMVPAHMKTTHA, the amyloid nucleation score was 0.526 ± 0.54.

The substance VSWWNCLL registered an amyloid nucleation score of -1.28 ± 2.4.

QMSKPARTLKSVRGPLDLRI: the amyloid nucleation score was -0.389 ± 0.61.

With RYWSRQRLTDVYVFRLDMSR, the amyloid nucleation score is -2.07 ± 2.4.

Take FWLLS: the amyloid nucleation score is -0.153 ± 1.

The substance VVLPRLRGNLVCDEIES returned an amyloid nucleation score of 2.07 ± 0.53.

In the case of FLSLFVSVV, the amyloid nucleation score is -0.18 ± 0.97.

Consider VGWGAMQGLMSGGLYIPV, for which the amyloid nucleation score is -0.671 ± 2.1.

In the case of LSAEFGSMLRLLCH, the amyloid nucleation score entry is “inactive”.

LAYGWKFDNSCLL yielded an amyloid nucleation score of 1.29 ± 0.68.

RVVSCMTSRMLWSMRDPIYY showed an amyloid nucleation score of 0.217 ± 0.41.

Substance YIIVLA returned an amyloid nucleation score of 1.28 ± 0.61.

In turn, GTKNLCDYIWPGPPGSVVRN showed an amyloid nucleation score of -0.159 ± 0.56.

In turn, FESRDVRSLWWDWSYSNKTV came in with an amyloid nucleation score of 0.191 ± 0.28.

Turning to FHVIGSARTLVVAQYLK, the amyloid nucleation score entry was “inactive”.

Take SLKCSNGR: the amyloid nucleation score was determined as 0.49 ± 0.3.

Turning to SYECVQNRQCAIGGNRSERF, the amyloid nucleation score came to 0.666 ± 0.93.

Take LDAKVFRVALAYYLPPGP: the amyloid nucleation score was found to be 0.789 ± 0.53.

AFFYYIEQDSYTVRSIMI yielded an amyloid nucleation score of -0.294 ± 0.42.

In turn, QTRWWEYHHNLFVLQITFGG showed an amyloid nucleation score of 1.04 ± 0.27.

VSKSYPIPCISKVS registered an amyloid nucleation score of 0.336 ± 0.52.

In the case of YQWIFIHLPAVLSVGMEIRY, the amyloid nucleation score is -0.672 ± 0.49.

On to DFCVPHGNCFLA, for which the amyloid nucleation score is -0.747 ± 0.48.

As for FHMPYLCNAKWRECLGFSAH, the amyloid nucleation score is 0.279 ± 1.4.

Substance CFLYNSFYILDISELLQGST had an amyloid nucleation score of 4.81 ± 0.049.

Take WIRDDVVMGGAECCLVLNQ: the amyloid nucleation score came out at 1.24 ± 0.58.

Consider IYFKIVILLRSSFFL, for which the amyloid nucleation score result is “inactive”.

In the case of LGLRFTCRLFGCIYTRASIM, the amyloid nucleation score was -0.735 ± 1.7.

For the substance LWLTHKCYCLDSNTCIKCEL, the amyloid nucleation score was -0.312 ± 0.38.

The substance IVRSAVRLELSGLPRCQGIS returned an amyloid nucleation score of -0.065 ± 0.95.

In turn, MWEALW displayed an amyloid nucleation score of 0.601 ± 0.54.

VSGVYLRFRASCRSY: the amyloid nucleation score was -0.105 ± 0.58.

On to RWVPYHFV, for which the amyloid nucleation score came out at 2.77 ± 0.13.

On to PLLFKGYNAHRPNLVLTTML, for which the amyloid nucleation score is -0.143 ± 1.7.

Turning to HNIKVAGQMYANKSRICTSM, the amyloid nucleation score was 0.412 ± 0.47.

Substance SLYRDYVRFGWLVRCGNGHD gave an amyloid nucleation score of 0.078 ± 0.23.

As for HPQYMLPT, the amyloid nucleation score came out at 0.569 ± 0.32.

As for LSVVVDRVLDNCLIGLYNAG, the amyloid nucleation score came out at 0.174 ± 0.28.

Substance QYFPF registered an amyloid nucleation score of -1.26 ± 1.2.

As for VSNFLSYNRWAHHGLFNSSF, the amyloid nucleation score worked out at 0.553 ± 0.53.

The substance VADFSL had an amyloid nucleation score of 1.44 ± 0.53.

For WSHADILV, the amyloid nucleation score entry is “inactive”.

In the case of SRTGRH, the amyloid nucleation score came to 0.972 ± 0.93.

With WYGVFALMIGRSIFD, the amyloid nucleation score is -0.027 ± 0.27.

As to EAFRLCGLVRACVAFCG, the amyloid nucleation score was 0.116 ± 0.3.

EDKYFA had an amyloid nucleation score of 0.323 ± 0.69.

For the substance FMGVINGEITLVNSFVTYMR, the amyloid nucleation score was found to be 7.768 ± 0.051.

For the substance RHYSARQWQIWGFCDLPHSR, the amyloid nucleation score came out at 0.086 ± 0.66.

WSSTTNWMLRPFKCANRLGW gave an amyloid nucleation score of -0.529 ± 1.3.

Take EIGYMGLSVSIFRCVWLFIF: the amyloid nucleation score turned out to be 0.056 ± 0.34.

With SLYMT, the amyloid nucleation score came out at 0.192 ± 0.34.

As to IGDNVNGSLLEIW, the amyloid nucleation score was -0.528 ± 0.32.

Consider VFLSADDVSGPRVDAVSGYS, for which the amyloid nucleation score worked out at 0.713 ± 0.5.

TKHRELVLPGLVFTTEYCLV: the amyloid nucleation score is -0.693 ± 1.6.

The substance YVFSCTGLNR returned an amyloid nucleation score of -1.03 ± 1.

In the case of KTLDLHISFPQDKLFR, the amyloid nucleation score is -0.382 ± 0.45.

NIGIMNFIVLAFLQ gave an amyloid nucleation score of 6.529 ± 0.062.

As to VCKGVYNMPCSTPNLYDSAG, the amyloid nucleation score is -0.563 ± 0.79.

In the case of LLVNFSTSRLSLYMFIMIFS, the amyloid nucleation score is -0.779 ± 0.39.

As to GETRVLHDKVGRKFGLCKDF, the amyloid nucleation score worked out at 0.32 ± 0.41.

In the case of TGTDVQGRSRLSDRAWGGYD, the amyloid nucleation score is -0.098 ± 0.36.

In turn, FRLMPEYVATYMLSLRMCQC showed an amyloid nucleation score of -0.565 ± 1.2.

The substance VLSWWTTNPSVMENTCCPWS displayed an amyloid nucleation score of 2.09 ± 0.32.

For the substance RKASWRWMSSMSNVGWTCPN, the amyloid nucleation score is 4.67 ± 0.12.
